Source: the supplement of paper PMC9112550, “Optimization of the antimicrobial peptide Bac7 by deep mutational scanning” (BMC Biology, 2022)

Tested on: Escherichia coli TOP10
Assay: shrunken log2 fold change of peptide-encoding DNA abundance (4.5 h post-induction vs induction); higher = less antimicrobial activity (less host growth inhibition)
Conditions: time post-induction: 4.5 h; library: site-saturation at positions 5, 18, 19, 20
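Further: peptides expressed intracellularly from a pBAD plasmid library in pooled LB shake-flask culture, induced with 0.3% L-arabinose, DNA abundance read by NGS, three biological replicates, DESeq2 with apeglm shrinkage.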

RRIRVRPPRLPRPRPRPAHWPRP
shrunken log2 fold change: 0.313

RRIRVRPPRLPRPRPRPAKPPRP
shrunken log2 fold change: 0.296

RRIRVRPPRLPRPRPRPAKVPRP
shrunken log2 fold change: 0.203

RRIRVRPPRLPRPRPRPALTPRP
shrunken log2 fold change: 0.117

RRIRVRPPRLPRPRPRPAMWPRP
shrunken log2 fold change: -0.0044

RRIRVRPPRLPRPRPRPANRPRP
shrunken log2 fold change: -0.179

RRIRVRPPRLPRPRPRPANSPRP
shrunken log2 fold change: -0.117

RRIRVRPPRLPRPRPRPAPKPRP
shrunken log2 fold change: 0.438

RRIRVRPPRLPRPRPRPAPLPRP
shrunken log2 fold change: 0.255

RRIRVRPPRLPRPRPRPASAPRP
shrunken log2 fold change: 0.309

RRIRVRPPRLPRPRPRPASFPRP
shrunken log2 fold change: 0.115

RRIRVRPPRLPRPRPRPASNPRP
shrunken log2 fold change: -0.0943

RRIRVRPPRLPRPRPRPATLPRP
shrunken log2 fold change: -0.00452

RRIRVRPPRLPRPRPRPAYLPRP
shrunken log2 fold change: 0.0246

RRIRVRPPRLPRPRPRPCALPRP
shrunken log2 fold change: -0.115

RRIRVRPPRLPRPRPRPCAPPRP
shrunken log2 fold change: -0.22

RRIRVRPPRLPRPRPRPCDSPRP
shrunken log2 fold change: -0.0445

RRIRVRPPRLPRPRPRPCEHPRP
shrunken log2 fold change: -0.0331

RRIRVRPPRLPRPRPRPCETPRP
shrunken log2 fold change: 0.0572

RRIRVRPPRLPRPRPRPCFFPRP
shrunken log2 fold change: -0.137

RRIRVRPPRLPRPRPRPCGPPRP
shrunken log2 fold change: -0.0876

RRIRVRPPRLPRPRPRPCHLPRP
shrunken log2 fold change: -0.00192

RRIRVRPPRLPRPRPRPCIAPRP
shrunken log2 fold change: -0.298

RRIRVRPPRLPRPRPRPCIIPRP
shrunken log2 fold change: -0.0793

RRIRVRPPRLPRPRPRPCIVPRP
shrunken log2 fold change: -0.0169

RRIRVRPPRLPRPRPRPCKCPRP
shrunken log2 fold change: -0.239

RRIRVRPPRLPRPRPRPCKVPRP
shrunken log2 fold change: 0.00272

RRIRVRPPRLPRPRPRPCLRPRP
shrunken log2 fold change: -0.146

RRIRVRPPRLPRPRPRPCMRPRP
shrunken log2 fold change: 0.108

RRIRVRPPRLPRPRPRPCNIPRP
shrunken log2 fold change: 0.0254

RRIRVRPPRLPRPRPRPCNLPRP
shrunken log2 fold change: -0.163

RRIRVRPPRLPRPRPRPCNYPRP
shrunken log2 fold change: -0.119

RRIRVRPPRLPRPRPRPCPQPRP
shrunken log2 fold change: -0.0828

RRIRVRPPRLPRPRPRPCRHPRP
shrunken log2 fold change: 0.0429

RRIRVRPPRLPRPRPRPCRKPRP
shrunken log2 fold change: 0.068

RRIRVRPPRLPRPRPRPCRPPRP
shrunken log2 fold change: 0.00447

RRIRVRPPRLPRPRPRPCRVPRP
shrunken log2 fold change: 0.00617

RRIRVRPPRLPRPRPRPCSYPRP
shrunken log2 fold change: -0.0326

RRIRVRPPRLPRPRPRPCVTPRP
shrunken log2 fold change: -0.0293

RRIRVRPPRLPRPRPRPCWMPRP
shrunken log2 fold change: -0.46

RRIRVRPPRLPRPRPRPCWSPRP
shrunken log2 fold change: 0.0821

RRIRVRPPRLPRPRPRPCYCPRP
shrunken log2 fold change: -0.32

RRIRVRPPRLPRPRPRPCYPPRP
shrunken log2 fold change: -0.327

RRIRVRPPRLPRPRPRPCYYPRP
shrunken log2 fold change: -0.147

RRIRVRPPRLPRPRPRPDACPRP
shrunken log2 fold change: -0.11

RRIRVRPPRLPRPRPRPDAIPRP
shrunken log2 fold change: 0.286

RRIRVRPPRLPRPRPRPDCSPRP
shrunken log2 fold change: -0.0973

RRIRVRPPRLPRPRPRPDDFPRP
shrunken log2 fold change: 0.0492

RRIRVRPPRLPRPRPRPDDPPRP
shrunken log2 fold change: 0.359

RRIRVRPPRLPRPRPRPDEAPRP
shrunken log2 fold change: -0.0574

RRIRVRPPRLPRPRPRPDEIPRP
shrunken log2 fold change: 0.0183

RRIRVRPPRLPRPRPRPDEPPRP
shrunken log2 fold change: 0.225

RRIRVRPPRLPRPRPRPDFDPRP
shrunken log2 fold change: 0.0753

RRIRVRPPRLPRPRPRPDFIPRP
shrunken log2 fold change: -0.396

RRIRVRPPRLPRPRPRPDFPPRP
shrunken log2 fold change: 0.0164

RRIRVRPPRLPRPRPRPDHNPRP
shrunken log2 fold change: -0.488

RRIRVRPPRLPRPRPRPDHPPRP
shrunken log2 fold change: -0.386

RRIRVRPPRLPRPRPRPDIVPRP
shrunken log2 fold change: -0.229

RRIRVRPPRLPRPRPRPDLMPRP
shrunken log2 fold change: -0.00839

RRIRVRPPRLPRPRPRPDLSPRP
shrunken log2 fold change: -0.011

RRIRVRPPRLPRPRPRPDLVPRP
shrunken log2 fold change: 0.211

RRIRVRPPRLPRPRPRPDMGPRP
shrunken log2 fold change: -0.0133

RRIRVRPPRLPRPRPRPDPQPRP
shrunken log2 fold change: 0.52

RRIRVRPPRLPRPRPRPDQMPRP
shrunken log2 fold change: 0.0399

RRIRVRPPRLPRPRPRPDSDPRP
shrunken log2 fold change: -0.0912

RRIRVRPPRLPRPRPRPDSGPRP
shrunken log2 fold change: -0.0439

RRIRVRPPRLPRPRPRPDSYPRP
shrunken log2 fold change: 0.0384

RRIRVRPPRLPRPRPRPDVHPRP
shrunken log2 fold change: -0.159

RRIRVRPPRLPRPRPRPDVRPRP
shrunken log2 fold change: -0.106

RRIRVRPPRLPRPRPRPDWKPRP
shrunken log2 fold change: -0.0682

RRIRVRPPRLPRPRPRPDWLPRP
shrunken log2 fold change: -0.0563

RRIRVRPPRLPRPRPRPDYCPRP
shrunken log2 fold change: -0.207

RRIRVRPPRLPRPRPRPEANPRP
shrunken log2 fold change: -0.141

RRIRVRPPRLPRPRPRPEAVPRP
shrunken log2 fold change: 0.112

RRIRVRPPRLPRPRPRPECEPRP
shrunken log2 fold change: 0.605

RRIRVRPPRLPRPRPRPECRPRP
shrunken log2 fold change: 0.238

RRIRVRPPRLPRPRPRPEDLPRP
shrunken log2 fold change: 0.084

RRIRVRPPRLPRPRPRPEDYPRP
shrunken log2 fold change: 0.0316

RRIRVRPPRLPRPRPRPEESPRP
shrunken log2 fold change: 0.246

RRIRVRPPRLPRPRPRPEFCPRP
shrunken log2 fold change: 0.267

RRIRVRPPRLPRPRPRPEGHPRP
shrunken log2 fold change: -0.0324

RRIRVRPPRLPRPRPRPEGTPRP
shrunken log2 fold change: -0.00568

RRIRVRPPRLPRPRPRPEHKPRP
shrunken log2 fold change: -0.0815

RRIRVRPPRLPRPRPRPEILPRP
shrunken log2 fold change: -0.0486

RRIRVRPPRLPRPRPRPEMGPRP
shrunken log2 fold change: 0.104

RRIRVRPPRLPRPRPRPEMVPRP
shrunken log2 fold change: -0.0955

RRIRVRPPRLPRPRPRPEQQPRP
shrunken log2 fold change: 0.0394

RRIRVRPPRLPRPRPRPERHPRP
shrunken log2 fold change: -0.0734

RRIRVRPPRLPRPRPRPERIPRP
shrunken log2 fold change: -0.00978

RRIRVRPPRLPRPRPRPERTPRP
shrunken log2 fold change: -0.111

RRIRVRPPRLPRPRPRPESTPRP
shrunken log2 fold change: 0.108

RRIRVRPPRLPRPRPRPETQPRP
shrunken log2 fold change: 0.259

RRIRVRPPRLPRPRPRPEVGPRP
shrunken log2 fold change: 0.175

RRIRVRPPRLPRPRPRPEVHPRP
shrunken log2 fold change: -0.0892

RRIRVRPPRLPRPRPRPEVKPRP
shrunken log2 fold change: 0.0366

RRIRVRPPRLPRPRPRPEWCPRP
shrunken log2 fold change: 0.323

RRIRVRPPRLPRPRPRPFAKPRP
shrunken log2 fold change: -0.307

RRIRVRPPRLPRPRPRPFAQPRP
shrunken log2 fold change: 0.0825

RRIRVRPPRLPRPRPRPFARPRP
shrunken log2 fold change: 0.206

RRIRVRPPRLPRPRPRPFCLPRP
shrunken log2 fold change: -0.357

RRIRVRPPRLPRPRPRPFDIPRP
shrunken log2 fold change: 0.145

RRIRVRPPRLPRPRPRPFEDPRP
shrunken log2 fold change: -0.151

RRIRVRPPRLPRPRPRPFFKPRP
shrunken log2 fold change: 0.0447

RRIRVRPPRLPRPRPRPFFYPRP
shrunken log2 fold change: 0.0563

RRIRVRPPRLPRPRPRPFGAPRP
shrunken log2 fold change: 0.258

RRIRVRPPRLPRPRPRPFGRPRP
shrunken log2 fold change: 0.0302

RRIRVRPPRLPRPRPRPFGWPRP
shrunken log2 fold change: 0.372

RRIRVRPPRLPRPRPRPFGYPRP
shrunken log2 fold change: -0.425

RRIRVRPPRLPRPRPRPFHFPRP
shrunken log2 fold change: -0.238

RRIRVRPPRLPRPRPRPFIMPRP
shrunken log2 fold change: -0.084

RRIRVRPPRLPRPRPRPFKIPRP
shrunken log2 fold change: -0.342

RRIRVRPPRLPRPRPRPFKTPRP
shrunken log2 fold change: 0.146

RRIRVRPPRLPRPRPRPFKWPRP
shrunken log2 fold change: 0.00238

RRIRVRPPRLPRPRPRPFLFPRP
shrunken log2 fold change: -0.205

RRIRVRPPRLPRPRPRPFLYPRP
shrunken log2 fold change: -0.728

RRIRVRPPRLPRPRPRPFMAPRP
shrunken log2 fold change: -0.128

RRIRVRPPRLPRPRPRPFMMPRP
shrunken log2 fold change: 0.097

RRIRVRPPRLPRPRPRPFNDPRP
shrunken log2 fold change: -0.416

RRIRVRPPRLPRPRPRPFNRPRP
shrunken log2 fold change: -0.0378

RRIRVRPPRLPRPRPRPFNSPRP
shrunken log2 fold change: -0.00973

RRIRVRPPRLPRPRPRPFPGPRP
shrunken log2 fold change: 0.03

RRIRVRPPRLPRPRPRPFPIPRP
shrunken log2 fold change: -0.39

RRIRVRPPRLPRPRPRPFPMPRP
shrunken log2 fold change: -0.35

RRIRVRPPRLPRPRPRPFQHPRP
shrunken log2 fold change: -0.131

RRIRVRPPRLPRPRPRPFRGPRP
shrunken log2 fold change: 0.0214

RRIRVRPPRLPRPRPRPFRTPRP
shrunken log2 fold change: -0.0962

RRIRVRPPRLPRPRPRPFSDPRP
shrunken log2 fold change: -0.263

RRIRVRPPRLPRPRPRPFTSPRP
shrunken log2 fold change: -0.0104

RRIRVRPPRLPRPRPRPFTYPRP
shrunken log2 fold change: -0.105

RRIRVRPPRLPRPRPRPFVCPRP
shrunken log2 fold change: -0.744

RRIRVRPPRLPRPRPRPFVVPRP
shrunken log2 fold change: -0.107

RRIRVRPPRLPRPRPRPFWEPRP
shrunken log2 fold change: -0.0891

RRIRVRPPRLPRPRPRPFWGPRP
shrunken log2 fold change: -0.0605

RRIRVRPPRLPRPRPRPFWTPRP
shrunken log2 fold change: -0.427

RRIRVRPPRLPRPRPRPGDAPRP
shrunken log2 fold change: 0.0792

RRIRVRPPRLPRPRPRPGEQPRP
shrunken log2 fold change: -0.0154

RRIRVRPPRLPRPRPRPGFIPRP
shrunken log2 fold change: -0.202

RRIRVRPPRLPRPRPRPGGGPRP
shrunken log2 fold change: 0.695

RRIRVRPPRLPRPRPRPGGKPRP
shrunken log2 fold change: 0.171

RRIRVRPPRLPRPRPRPGHSPRP
shrunken log2 fold change: -0.195

RRIRVRPPRLPRPRPRPGLYPRP
shrunken log2 fold change: -0.384

RRIRVRPPRLPRPRPRPGMVPRP
shrunken log2 fold change: 0.0182

RRIRVRPPRLPRPRPRPGMYPRP
shrunken log2 fold change: -0.241

RRIRVRPPRLPRPRPRPGNSPRP
shrunken log2 fold change: 0.0126

RRIRVRPPRLPRPRPRPGPEPRP
shrunken log2 fold change: 0.22

RRIRVRPPRLPRPRPRPGQFPRP
shrunken log2 fold change: -0.156

RRIRVRPPRLPRPRPRPGRGPRP
shrunken log2 fold change: 0.632

RRIRVRPPRLPRPRPRPGRHPRP
shrunken log2 fold change: 0.0728

RRIRVRPPRLPRPRPRPGSHPRP
shrunken log2 fold change: 0.105

RRIRVRPPRLPRPRPRPGVWPRP
shrunken log2 fold change: 1.88
